In article PMC4517315, “Functional properties and structural characterization of rice δ^1-pyrroline-5-carboxylate reductase” (Frontiers in Plant Science, 2015):
Each block holds one molecule with its values, some of them ahead of it.

What was measured:
[1] = target: T1, rice δ^1-pyrroline-5-carboxylate reductase (Oryza sativa, UniProt Q8GT01); assay: product inhibition of purified recombinant enzyme, NADH-dependent P5C reduction at […] nm; Lineweaver-Burk/non-linear regression; assay type: biochemical
T1 construct: gene Os01g0948400

[2] = target: rice (Oryza sativa L.) δ1-pyrroline-5-carboxylate (P5C) reductase, from pET151-OsP5CR, TEV-cleaved (Oryza sativa (japonica rice)); assay: SEC; gel permeation on Superose 12 HR 10/30, 50 mM Tris-HCl pH 7.75, 250 mM NaCl, 100 uL of protein at 10 mg/mL, calibrated with molecular weight markers; identical elution patterns up to 1 M NaCl (data not shown); size of the oligomer from the apparent mass
[3] = target: Oryza sativa P5C reductase, from pMCSG68, for crystallization (Oryza sativa (japonica rice)); assay: crystal structure; 3.40 Å, space group P2(1), two decamers in the asymmetric unit; crystals from 100 mM Tris-HCl pH 8.5, 200 mM MgCl2, 18% PEG 8000, 19°C; molecular replacement with a homology model based on PDB 2izz
[4] = substrate: NC(=O)C1=CN([C@@H]2O[C@H](COP(=O)(O)OP(=O)(O)OC[C@H]3O[C@@H](n4cnc5c(N)ncnc54)[C@H](O)[C@@H]3O)[C@@H](O)[C@H]2O)C=CC1; assay: purified protein; details: P5C binding is required to allow NADH to enter the active site; varied: cofactor
[5] = substrate: NC(=O)C1=CN([C@@H]2O[C@H](COP(=O)(O)OP(=O)(O)OC[C@H]3O[C@@H](n4cnc5c(N)ncnc54)[C@H](OP(=O)(O)O)[C@@H]3O)[C@@H](O)[C@H]2O)C=CC1; assay: purified protein; details: varied: cofactor
[6] = substrate: O=C(O)C1CCC=N1; assay: purified protein; assay type: biochemical, Oryza sativa; details: NADPH P5C binds before NADPH (ordered substrate binding)

- stoichiometry N [2]: 14 subunits
Molecule: rice (Oryza sativa L.) δ1-pyrroline-5-carboxylate (P5C) reductase, from pET151-OsP5CR, TEV-cleaved (enzyme)

- stoichiometry N [3]: 10 subunits
Molecule: Oryza sativa P5C reductase, from pMCSG68, for crystallization (enzyme)

Second part, the molecule before the results:

Molecule: NC(=O)c1ccc[n+]([C@@H]2O[C@H](COP(=O)([O-])OP(=O)(O)OC[C@H]3O[C@@H](n4cnc5c(N)ncnc54)[C@H](OP(=O)(O)O)[C@@H]3O)[C@@H](O)[C@H]2O)c1 [NADP^+]
- Ki [1]: 0.00773 ± 0.00069 mM

Molecule: O=C(O)[C@@H]1CCCN1 [L-proline]
- Ki [1]: 20.2 ± 1 mM

B1: rice δ^1-pyrroline-5-carboxylate reductase (Oryza sativa Japonica Group) (protein)
chain: MAAPPQPVPAPAAASPEVFRLGFIGPGNLAESIARGVAASGVLPATAIRTAPHRRPERAEAFSSIGAHILETNAQVVDDSDVIVISVKPQIVRQVLVELKPLLSEEKLLVSIAAGIKMEDLQGWSGHRRFIRVMPNTPSAVGQAASVMCLGEMATENDENRVRSLFSAIGKVWTAEEKYFDAVTGLSGSGPAYIFLAIEAMADGGVAAGLPRDLALGLASQTVLGAATMVNKTGKHPGQLKDMVTSPAGTTITGIQELEKGAFRGTLINAVVAATKRCRELSQS
- Km [4]: 806 ± 89 µM
- Vmax [4]: 158.3 ± 13.2 μkat (mg protein)^-1
- Km [5]: 49.4 ± 1.8 µM
- Vmax [5]: 11.68 ± 0.16 μkat (mg protein)^-1
- Km [6]: 28.8 ± 1.7 µM
